Data on 26 molecules can be found in patent US20020004485A1.

Square brackets hold non-standard residues; d marks the D form. Ends that are not written are not given here. * marks the point of attachment. Benzoyl(3-OMe) = COc1cccc(C(=O)*)c1; Benzoyl(4-OMe) = COc1ccc(C(=O)*)cc1; d2Thi = N[C@H](Cc1cccs1)C(=O)O; dNal = D-naphthylalanine

B1: Ac-Arg-Tyr-Tyr-Arg-D-Trp-Lys-NH2 (peptide)
peptide: Ac-RYYR[dW]K-NH2
SMILES: CC(=O)N[C@@H](CCCNC(=N)N)C(=O)N[C@@H](Cc1ccc(O)cc1)C(=O)N[C@@H](Cc1ccc(O)cc1)C(=O)N[C@@H](CCCNC(=N)N)C(=O)N[C@H](Cc1c[nH]c2ccccc12)C(=O)N[C@@H](CCCCN)C(N)=O
B2: SQW-7 (peptide)
peptide: {Benzoyl(3-OMe)}-ARIRPKL-NH2
SMILES: CC[C@H](C)[C@H](NC(=O)[C@H](CCCNC(=N)N)NC(=O)[C@H](C)NC(=O)c1cccc(OC)c1)C(=O)N[C@@H](CCCNC(=N)N)C(=O)N1CCC[C@H]1C(=O)N[C@@H](CCCCN)C(=O)N[C@@H](CC(C)C)C(N)=O
B3: SQW-8 (peptide)
peptide: {Benzoyl(3-OMe)}-RAIRPKL-NH2
SMILES: CC[C@H](C)[C@H](NC(=O)[C@H](C)NC(=O)[C@H](CCCNC(=N)N)NC(=O)c1cccc(OC)c1)C(=O)N[C@@H](CCCNC(=N)N)C(=O)N1CCC[C@H]1C(=O)N[C@@H](CCCCN)C(=O)N[C@@H](CC(C)C)C(N)=O
B4: p-Anisoyl-Arg-Tyr-Tyr-Arg-D-Trp-Lys-NH2 (peptide)
peptide: {Benzoyl(4-OMe)}-RYYR[dW]K-NH2
SMILES: COc1ccc(C(=O)N[C@@H](CCCNC(=N)N)C(=O)N[C@@H](Cc2ccc(O)cc2)C(=O)N[C@@H](Cc2ccc(O)cc2)C(=O)N[C@@H](CCCNC(=N)N)C(=O)N[C@H](Cc2c[nH]c3ccccc23)C(=O)N[C@@H](CCCCN)C(N)=O)cc1
B5: SQW-10 (peptide)
peptide: {Benzoyl(3-OMe)}-RRIAPKL-NH2
SMILES: CC[C@H](C)[C@H](NC(=O)[C@H](CCCNC(=N)N)NC(=O)[C@H](CCCNC(=N)N)NC(=O)c1cccc(OC)c1)C(=O)N[C@@H](C)C(=O)N1CCC[C@H]1C(=O)N[C@@H](CCCCN)C(=O)N[C@@H](CC(C)C)C(N)=O
B6: S-162 (peptide)
peptide: {Benzoyl(4-OMe)}-RKLL[d2Thi]I[dA]-NH2
SMILES: CC[C@H](C)[C@H](NC(=O)[C@@H](Cc1cccs1)NC(=O)[C@H](CC(C)C)NC(=O)[C@H](CC(C)C)NC(=O)[C@H](CCCCN)NC(=O)[C@H](CCCNC(=N)N)NC(=O)c1ccc(OC)cc1)C(=O)N[C@H](C)C(N)=O
B7: SQW-3 (peptide)
peptide: {Benzoyl(4-OMe)}-R[dR]I[dR]P[dK][dL]-NH2
SMILES: CC[C@H](C)[C@H](NC(=O)[C@@H](CCCNC(=N)N)NC(=O)[C@H](CCCNC(=N)N)NC(=O)c1ccc(OC)cc1)C(=O)N[C@H](CCCNC(=N)N)C(=O)N1CCC[C@H]1C(=O)N[C@H](CCCCN)C(=O)N[C@H](CC(C)C)C(N)=O
B8: S-165 (peptide)
peptide: {Benzoyl(4-OMe)}-RKLA[d2Thi]I[dL]-NH2
SMILES: CC[C@H](C)[C@H](NC(=O)[C@@H](Cc1cccs1)NC(=O)[C@H](C)NC(=O)[C@H](CC(C)C)NC(=O)[C@H](CCCCN)NC(=O)[C@H](CCCNC(=N)N)NC(=O)c1ccc(OC)cc1)C(=O)N[C@H](CC(C)C)C(N)=O
B9: SQW-11 (peptide)
peptide: {Benzoyl(3-OMe)}-RRIRAKL-NH2
SMILES: CC[C@H](C)[C@H](NC(=O)[C@H](CCCNC(=N)N)NC(=O)[C@H](CCCNC(=N)N)NC(=O)c1cccc(OC)c1)C(=O)N[C@@H](CCCNC(=N)N)C(=O)N[C@@H](C)C(=O)N[C@@H](CCCCN)C(=O)N[C@@H](CC(C)C)C(N)=O
B10: S-166 (peptide)
peptide: {Benzoyl(4-OMe)}-RALL[d2Thi]I[dL]-NH2
SMILES: CC[C@H](C)[C@H](NC(=O)[C@@H](Cc1cccs1)NC(=O)[C@H](CC(C)C)NC(=O)[C@H](CC(C)C)NC(=O)[C@H](C)NC(=O)[C@H](CCCNC(=N)N)NC(=O)c1ccc(OC)cc1)C(=O)N[C@H](CC(C)C)C(N)=O
B11: SQW-2 (peptide)
peptide: {Benzoyl(4-OMe)}-RRI[dR]P[dK][dL]-NH2
SMILES: CC[C@H](C)[C@H](NC(=O)[C@H](CCCNC(=N)N)NC(=O)[C@H](CCCNC(=N)N)NC(=O)c1ccc(OC)cc1)C(=O)N[C@H](CCCNC(=N)N)C(=O)N1CCC[C@H]1C(=O)N[C@H](CCCCN)C(=O)N[C@H](CC(C)C)C(N)=O
B12: S-167 (peptide)
peptide: {Benzoyl(4-OMe)}-AKLL[d2Thi]I[dL]-NH2
SMILES: CC[C@H](C)[C@H](NC(=O)[C@@H](Cc1cccs1)NC(=O)[C@H](CC(C)C)NC(=O)[C@H](CC(C)C)NC(=O)[C@H](CCCCN)NC(=O)[C@H](C)NC(=O)c1ccc(OC)cc1)C(=O)N[C@H](CC(C)C)C(N)=O
B13: SQW-9 (peptide)
peptide: {Benzoyl(3-OMe)}-RRARPKL-NH2
SMILES: COc1cccc(C(=O)N[C@@H](CCCNC(=N)N)C(=O)N[C@@H](CCCNC(=N)N)C(=O)N[C@@H](C)C(=O)N[C@@H](CCCNC(=N)N)C(=O)N2CCC[C@H]2C(=O)N[C@@H](CCCCN)C(=O)N[C@@H](CC(C)C)C(N)=O)c1
B14: SQW-4 (peptide)
peptide: {Benzoyl(4-OMe)}-[dR][dR]I[dR]P[dK][dL]-NH2
SMILES: CC[C@H](C)[C@H](NC(=O)[C@@H](CCCNC(=N)N)NC(=O)[C@@H](CCCNC(=N)N)NC(=O)c1ccc(OC)cc1)C(=O)N[C@H](CCCNC(=N)N)C(=O)N1CCC[C@H]1C(=O)N[C@H](CCCCN)C(=O)N[C@H](CC(C)C)C(N)=O
B15: S-118 (peptide)
peptide: {Benzoyl(4-OMe)}-AKLL[d2Thi]I[dL]-NH2
SMILES: CC[C@H](C)[C@H](NC(=O)[C@@H](Cc1cccs1)NC(=O)[C@H](CC(C)C)NC(=O)[C@H](CC(C)C)NC(=O)[C@H](CCCCN)NC(=O)[C@H](C)NC(=O)c1ccc(OC)cc1)C(=O)N[C@H](CC(C)C)C(N)=O
B16: S-164 (peptide)
peptide: {Benzoyl(4-OMe)}-RKLL[dA]I[dL]-NH2
SMILES: CC[C@H](C)[C@H](NC(=O)[C@@H](C)NC(=O)[C@H](CC(C)C)NC(=O)[C@H](CC(C)C)NC(=O)[C@H](CCCCN)NC(=O)[C@H](CCCNC(=N)N)NC(=O)c1ccc(OC)cc1)C(=O)N[C@H](CC(C)C)C(N)=O
B17: mystixin-7 (S-21) (peptide)
peptide: {Benzoyl(4-OMe)}-RKLL[d2Thi]I[dL]-NH2
SMILES: CC[C@H](C)[C@H](NC(=O)[C@@H](Cc1cccs1)NC(=O)[C@H](CC(C)C)NC(=O)[C@H](CC(C)C)NC(=O)[C@H](CCCCN)NC(=O)[C@H](CCCNC(=N)N)NC(=O)c1ccc(OC)cc1)C(=O)N[C@H](CC(C)C)C(N)=O
B18: S-117 (peptide)
peptide: {Benzoyl(4-OMe)}-RKLL[dW]I[dL]-NH2
SMILES: CC[C@H](C)[C@H](NC(=O)[C@@H](Cc1c[nH]c2ccccc12)NC(=O)[C@H](CC(C)C)NC(=O)[C@H](CC(C)C)NC(=O)[C@H](CCCCN)NC(=O)[C@H](CCCNC(=N)N)NC(=O)c1ccc(OC)cc1)C(=O)N[C@H](CC(C)C)C(N)=O
B19: S-116 (peptide)
peptide: {Benzoyl(4-OMe)}-RKLL[dY]I[dL]-NH2
SMILES: CC[C@H](C)[C@H](NC(=O)[C@@H](Cc1ccc(O)cc1)NC(=O)[C@H](CC(C)C)NC(=O)[C@H](CC(C)C)NC(=O)[C@H](CCCCN)NC(=O)[C@H](CCCNC(=N)N)NC(=O)c1ccc(OC)cc1)C(=O)N[C@H](CC(C)C)C(N)=O
B20: S-163 (peptide)
peptide: {Benzoyl(4-OMe)}-RKLL[d2Thi]A[dL]-NH2
SMILES: COc1ccc(C(=O)N[C@@H](CCCNC(=N)N)C(=O)N[C@@H](CCCCN)C(=O)N[C@@H](CC(C)C)C(=O)N[C@@H](CC(C)C)C(=O)N[C@H](Cc2cccs2)C(=O)N[C@@H](C)C(=O)N[C@H](CC(C)C)C(N)=O)cc1
B21: S-160 (peptide)
peptide: {Benzoyl(4-OMe)}-RKAL[d2Thi]I[dL]-NH2
SMILES: CC[C@H](C)[C@H](NC(=O)[C@@H](Cc1cccs1)NC(=O)[C@H](CC(C)C)NC(=O)[C@H](C)NC(=O)[C@H](CCCCN)NC(=O)[C@H](CCCNC(=N)N)NC(=O)c1ccc(OC)cc1)C(=O)N[C@H](CC(C)C)C(N)=O

The experiment addresses MC receptor endogenous to Xenopus laevis melanophores (Xenopus laevis). As to the kind of experiment: cell-based or functional assay.
In turn, B1 had an IC50 nM in Frog Melanophore Assay of 867 nM.
In turn, B2 gave an MCR IC50 nM: antagonism of α-MSH (600 pM) darkening of frog melanophores of 110 nM.
The same measure, in the same setting: under B3 stands 75 nM.
In turn, QGPPISIDLSLELLRKMIEIEKQEKEKQQAANNRLLLDTI (peptide, UniProt P01144 1-40, looked up) [sauvagine] came in with an IC50 in the frog MCR assay above 10000 nM.
B4 yielded an IC50 nM in Frog Melanophore Assay of 175 nM.
For B5, the MCR IC50 nM: antagonism of α-MSH (600 pM) darkening of frog melanophores is 187 nM.
In turn, B6 came in with an MCR Antagonism IC50 nM In Xenopus of 43 nM.
On to B7, for which the MCR IC50 nM: antagonism of α-MSH (600 pM) darkening of frog melanophores was 156 nM.
For B8, the MCR Antagonism IC50 nM In Xenopus stood at 282 nM.
Molecule B9 had an MCR IC50 nM: antagonism of α-MSH (600 pM) darkening of frog melanophores of 188 nM.
On to Ac-RYYRWK-NH2 [Ac-Arg-Tyr-Tyr-Arg-Trp-Lys-NH2], for which the IC50 nM in Frog Melanophore Assay is 1050 nM.
On to B10, for which the MCR Antagonism IC50 nM In Xenopus is 1200 nM.
As to {Benzoyl(4-OMe)}-RKLL[dNal]I[dL]-NH2 [S-114], the MCR Antagonism IC50 nM In Xenopus came out at 166 nM.
Molecule B11 displayed an MCR IC50 nM: antagonism of α-MSH (600 pM) darkening of frog melanophores of 114 nM.
B12: the MCR Antagonism IC50 nM In Xenopus turned out to be 1200 nM.
For B13, the MCR IC50 nM: antagonism of α-MSH (600 pM) darkening of frog melanophores was 155 nM.
On to B14, for which the MCR IC50 nM: antagonism of α-MSH (600 pM) darkening of frog melanophores worked out at 17 nM.
In turn, B15 registered an MCR Antagonism IC50 nM In Xenopus of 96 nM.
On the same count and under the same terms, next, B16: 26 nM.
The same measure, in the same setting: next, B17: 237 nM.
For the molecule SEEPPISLDLTFHLLREVLEMARAEQLAQQAHSNRKLMEII (peptide, UniProt P06850 154-194, looked up) [human CRH], the IC50 in the frog MCR assay stood at 10000 nM.
The molecule B18 yielded an MCR Antagonism IC50 nM In Xenopus of 22 nM.
In turn, QGKRPWIL (peptide, UniProt P07198 74-81, looked up, ends and bridges not checked) [xenopsin] gave an IC50 in the frog MCR assay above 10000 nM.
Consider B19, for which the MCR Antagonism IC50 nM In Xenopus was found to be 77 nM.
Same read-out and setting: next, B20: 234 nM; B21: 197 nM.
